Patent publication US20210269549A1, “ANTI-SAS1B ANTIBODIES, ASSOCIATED METHODS OF USE, AND COMPOSITIONS AND METHODS FOR DETECTING AND TREATING CANCER” (UNIVERSITY OF VIRGINIA PATENT FOUNDATION, priority 2015, published 2021)

Experiments:
SAS1B+ tumor cell lines = assay: Confocal immunofluorescence microscopy on live cells (FIG. 25); assay type: cell-based
From the text: Bioassays to select therapeutic and diagnostic mAbs have focused on two strategies: 1) identification of mAbs reactive with recombinant SAS1B, endogenous SAS1B, and with SAS1B accessible on cell surfaces; and 2) mAbs that recognize epitopes preserved in formalin fixed paraffin embedded sections that work as immuno-cytochemical probes. […] These transfected cells provide one effective screening tool to identify mAbs reactive with native epitopes on SAS1B. Another screening assay is to study SAS1B+ tumor cell lines by immunofluorescence microscopy and FACS. mAbs that recognize SAS1B at the surface of live cells and gate specific cell populations by FACS have been isolated. […] Efforts to identify mAbs that localize SAS1B in fixed embedded sections have also yielded reagents of utility for histopathology. […] Thus the non-human primate ovary can be used as a positive control tissue for studying the histopathology of tumor specimens with these reagents.

[1] = system: human pancreatic cancer cell MPanc96; assay: ADC cytotoxicity assay (total cellular ATP), MPanc96; assay type: cell-based; settings: 0.1 nM mAb, Fab-DMDM constant at 15 nM, ~72 hours
Protocol: The cytotoxic effect of anti-human SAS1B mAbs SB2, SB4, SB5 on human pancreatic cancer cell MPanc96 was determined by ADC assay. Human pancreatic cancer cells MPanc96 were seeded in triplicate on 96 well plates (1100 cells per well) overnight and then treated with SB2, SB4, SB5, and […] (anti-CABYR) and anti-mouse Fab-cleavable-Duocarmycin complex for ˜72 hours. The presence of viable live cells per well was measured by total cellular ATP content in relative luminescence unit (RLU). […] The anti-SAS1B mAbs SB2, SB4, and SB5 killed 80%, 64%, 57% of cells, respectively, at 1 nM concentration when Fab-DMDM was kept constant at 15 nM for all primary antibody dilutions. SB2 killed 67% of cells at 0.1 nM concentration. […] Staurosporine, a general protein kinase inhibitor, which induces apoptosis, was used as a positive control and DMSO was used as a negative control. The data are shown in FIG. 7A-B and represent an average of triplicate experiments.

B1: SB2: mouse anti-human SAS1B monoclonal antibody, IgG2b; VH SEQ ID NO:14, VL SEQ ID NO:15 (antibody, listed as Mus musculus, V domains shown)
VH: EVQLQQSGPELVKPGSSVKISCKASGYTFTDYNMVWVKQSHGKSLEWIGAVNPNNGGTSYNQKFKGKATLTVDKSSSTAYMELRSLTSEDSAVYYCVPNWDWFAYWGQGTLVTVSA
VL: DVLMTQTPLSLPVSLGDQASISCRSSQSLVHSNGNTYLEWYLQKPGQSPNLLIYKVSNRFSGVPDRFSGSGSGTDFTLKISRVEAEDLGVYYCFQGSHVPFTFGSGTKLEIK
In the case of B1, the “Binding of SAS1B on live cells” value (SAS1B+ tumor cell lines) is reported as “bind SAS1B on live cells” and the Cells killed [1] is reported as 67%.
